Values joined by “and” are separate entries in the source; they are usually repeats but may differ in a detail not shown here. Equal entries are not always repeated.
What was measured:
KFNHWFG-Toyopearl resin [1] = assay: breakthrough chromatography
FFNFFKG-Toyopearl resin [2] = assay: breakthrough chromatography
KFNHWFG-Toyopearl resin [3] = assay: batch adsorption isotherm
KWWIWAG-Toyopearl resin = assay: affinity chromatography
GYISRHPG-Toyopearl resin = assay: affinity chromatography
KFNHWFG-Toyopearl resin [4] = assay: affinity chromatography
WKAHNKG-Toyopearl resin = assay: affinity chromatography
FFNFFKG-Toyopearl resin [5] = assay: affinity chromatography
…-Toyopearl resin = assay: affinity chromatography
FNHFFIG-Toyopearl resin = assay: affinity chromatography
WWIKISG-Toyopearl resin = assay: affinity chromatography
[6] = target: the peptide-based adsorbents; assay: affinity chromatography

Q: Which results are given for “Adeno-associated virus serotype 2 capsid (complex)”?
A: DBC10% (dynamic binding capacity at 10% breakthrough) (vp AAV per mL of resin) (KFNHWFG-Toyopearl resin [1]): 1.33e+13; DBC10% (dynamic binding capacity at 10% breakthrough) (vp AAV per mL of resin) (FFNFFKG-Toyopearl resin [2]): 1.4e+13; Kd (KFNHWFG-Toyopearl resin [3]): 0.16 pM; loss (AAV titer in flow-through and wash vs. load) (KWWIWAG-Toyopearl resin): < 1.7%; loss (AAV titer in flow-through and wash vs. load) (GYISRHPG-Toyopearl resin): < 1.7%; loss (AAV titer in flow-through and wash vs. load) (KFNHWFG-Toyopearl resin [4]): < 1.7%; yield (AAV titer in elution fraction vs. load) (KFNHWFG-Toyopearl resin [4]): 45%; loss (AAV titer in flow-through and wash vs. load) (WKAHNKG-Toyopearl resin): < 1.7%; yield (AAV titer in elution fraction vs. load) (WKAHNKG-Toyopearl resin): 79.8%; loss (AAV titer in flow-through and wash vs. load) (FFNFFKG-Toyopearl resin [5]): < 1.7%; loss (AAV titer in flow-through and wash vs. load) (…-Toyopearl resin): < 1.7%; yield (AAV titer in elution fraction vs. load) (…-Toyopearl resin): 54.9% and 44.8%; loss (AAV titer in flow-through and wash vs. load) (FNHFFIG-Toyopearl resin): < 1.7%; loss (AAV titer in flow-through and wash vs. load) (WWIKISG-Toyopearl resin): < 1.7%; loss (AAV titer in flow-through and wash vs. load) [6]: 1 to 4%; yield (AAV titer in elution fraction vs. load) [6]: 40 to 65%

Q: Which results are given for “Adeno-associated virus serotype 9 capsid (complex)”?
A: yield (AAV titer in elution fraction vs. load) (KWWIWAG-Toyopearl resin): 57.2%; yield (AAV titer in elution fraction vs. load) (FFNFFKG-Toyopearl resin [5]): 72.4%; yield (AAV titer in elution fraction vs. load) (…-Toyopearl resin): 61.7% and 43.9% and 53.7%

Reference: article PMC10440015
